Target: interleukin-8 (IL-8; CXCL8)

Row | Protein | IL-8 cleavage, SDS-PAGE with silver staining | percentage of uncleaved IL-8, ELISA | uncleaved IL-8 after 24 h incubation, ELISA | IL-8 cleavage, SDS-PAGE with silver staining, 24 hours
1 | wild-type GAS57 (Spy0416), recombinant, purified from E. coli (protein) chain 1: ADELSTMSEPTITNHAQQQAQHLTNTELSSAESKSQDTSQITLKTNREKEQSQDLVSEPTTTELADTDAASMANTGSDATQKSASLPPVNTDVHDWVKTKGAWDKGYKGQGKVVAVIDTGIDPAHQSMRISDVSTAKVKSKEDMLARQKAAGINYGSWINDKVVFAHNYVENSDNIKENQFEDFDEDWENFEFDAEAEPKAIKKHKIYRPQ chain 2: STQAPKETVIKTEETDGSHDIDWTQTDDDTKYESHGMHVTGIVAGNSKEAAATGERFLGIAPEAQVMFMRVFANDIMGSAESLFIKAIEDAVALGADVINLSLGTANGAQLSGSKPLMEAIEKAKKAGVSVVVAAGNERVYGSDHDDPLATNPDYGLVGSPSTGRTPTSVAAINSKWVIQRLMTVKELENRADLNHGKAIYSESVDFKDIKDSLGYDKSHQFAYVKESTDAGYNAQDVKGKIALIERDPNKTYDEMIALAKKHGALGVLIFNNKPGQSNRSMRLTANGMGIPSAFISHEFGKAMSQLNGNGTGSLEFDSVVSKAPSQKGNEMNHFSNWGLTSDGYLKPDITAPGGDIYSTYNDNHYGSQTGTSMASPQIAGASLLVKQYLEKTQPNLPKEKIADIVKNLLMSNAQIHVNPETKTTTSPRQQGAGLLNIDGAVTSGLYVTGKDNYGSISLGNITDTMTFDVTVHNLSNKDKTLRYDTELLTDHVDPQKGRFTLTSHSLKTYQGGEVTVPANGKVTVRVTMDVSQFTKELTKQMPNGYYLEGFVRFRDSQDDQLNRVNIPFVGFKGQFENLAVAEESIYRLKSQGKTGFYFDESGPKDDIYVGKHFTGLVTLGSETNVSTKTISDNGLHTLGTFKNADGKFILEKNAQGNPVLAISPNGDNNQDFAAFKGVFLRKYQGLKASVYHASDKEHKNPLWVSPESFKGDKNFNSDIRFAKSTTLLGTAFSGKSLTGAELPDGHYHYVVSYYPDVVGAKRQEMTFDMILDRQKPVLSQATFDPETNRFKPEPLKDRGLAGVRKDSVFYLERKDNKPYTVTINDSYKYVSVEDNKTFVERQADGSFILPLDKAKLGDFYYMVEDFAGNVAIAKLGDHLPQTLGKTPIKLKLTDGNYQTKETLKDNLEMTQSDTGLVTNQAQLAVVHRNQPQSQLTKMNQDFFISPNEDGNKDFVAFKGLKNNVYNDLTVNVYAKDDHQKQTPIWSSQAGASVSAIESTAWYGITARGSKVMPGDYQYVVTYRDEHGKEHQKQYTISVNDKKPMITQGRFDTINGVDHFTPDKTKALDSSGIVREEVFYLAKKNGRKFDVTEGKDGITVSDNKVYIPKNPDGSYTISKRDGVTLSDYYYLVEDRAGNVSFATLRDLKAVGKDKAVVNFGLDLPVPEDKQIVNFTYLVRDADGKPIENLEYYNNSGNSLILPYGKYTVELLTYDTNAAKLESDKIVSFTLSADNNFQQVTFKITMLATSQITAHFDHLLPEGSRVSLKTAQDQLIPLEQSLYVPKAYGKTVQEGTYEVVVSLPKGYRIEGNTKVNTLPNEVHELSLRLVKVGDASDSTGDHKVMSKNNSQALTASATPT | Wild-type GAS57 (lanes 2 and 3) released two bands: 8 kDa (active form) and 6 kDa (inactive cleaved IL-8) | wild-type GAS57 almost completely inactivated IL-8 after 8 hours, even at the lower concentration | – | –
2 | GAS57 mutant D151A, His-tagged (protein) ADELSTMSEPTITNHAQQQAQHLTNTELSSAESKSQDTSQITLKTNREKEQSQDLVSEPTTTELADTDAASMANTGSDATQKSASLPPVNTDVHDWVKTKGAWDKGYKGQGKVVAVIATGIDPAHQSMRISDVSTAKVKSKEDMLARQKAAGINYGSWINDKVVFAHNYVENSDNIKENQFEDFDEDWENFEFDAEAEPKAIKKHKIYRPQSTQAPKETVIKTEETDGSHDIDWTQTDDDTKYESHGMHVTGIVAGNSKEAAATGERFLGIAPEAQVMFMRVFANDIMGSAESLFIKAIEDAVALGADVINLSLGTANGAQLSGSKPLMEAIEKAKKAGVSVVVAAGNERVYGSDHDDPLATNPDYGLVGSPSTGRTPTSVAAINSKWVIQRLMTVKELENRADLNHGKAIYSESVDFKDIKDSLGYDKSHQFAYVKESTDAGYNAQDVKGKIALIERDPNKTYDEMIALAKKHGALGVLIFNNKPGQSNRSMRLTANGMGIPSAFISHEFGKAMSQLNGNGTGSLEFDSVVSKAPSQKGNEMNHFSNWGLTSDGYLKPDITAPGGDIYSTYNDNHYGSQTGTSMASPQIAGASLLVKQYLEKTQPNLPKEKIADIVKNLLMSNAQIHVNPETKTTTSPRQQGAGLLNIDGAVTSGLYVTGKDNYGSISLGNITDTMTFDVTVHNLSNKDKTLRYDTELLTDHVDPQKGRFTLTSHSLKTYQGGEVTVPANGKVTVRVTMDVSQFTKELTKQMPNGYYLEGFVRFRDSQDDQLNRVNIPFVGFKGQFENLAVAEESIYRLKSQGKTGFYFDESGPKDDIYVGKHFTGLVTLGSETNVSTKTISDNGLHTLGTFKNADGKFILEKNAQGNPVLAISPNGDNNQDFAAFKGVFLRKYQGLKASVYHASDKEHKNPLWVSPESFKGDKNFNSDIRFAKSTTLLGTAFSGKSLTGAELPDGHYHYVVSYYPDVVGAKRQEMTFDMILDRQKPVLSQATFDPETNRFKPEPLKDRGLAGVRKDSVFYLERKDNKPYTVTINDSYKYVSVEDNKTFVERQADGSFILPLDKAKLGDFYYMVEDFAGNVAIAKLGDHLPQTLGKTPIKLKLTDGNYQTKETLKDNLEMTQSDTGLVTNQAQLAVVHRNQPQSQLTKMNQDFFISPNEDGNKDFVAFKGLKNNVYNDLTVNVYAKDDHQKQTPIWSSQAGASVSAIESTAWYGITARGSKVMPGDYQYVVTYRDEHGKEHQKQYTISVNDKKPMITQGRFDTINGVDHFTPDKTKALDSSGIVREEVFYLAKKNGRKFDVTEGKDGITVSDNKVYIPKNPDGSYTISKRDGVTLSDYYYLVEDRAGNVSFATLRDLKAVGKDKAVVNFGLDLPVPEDKQIVNFTYLVRDADGKPIENLEYYNNSGNSLILPYGKYTVELLTYDTNAAKLESDKIVSFTLSADNNFQQVTFKITMLATSQITAHFDHLLPEGSRVSLKTAQDQLIPLEQSLYVPKAYGKTVQEGTYEVVVSLPKGYRIEGNTKVNTLPNEVHELSLRLVKVGDASDSTGDHKVMSKNNSQALTASATPT | the GAS57 D151A mutant released only one band, which corresponded to uncleaved IL-8, as in the control reaction (without enzyme) | no inactivation was observed for IL-8 treated with the mutant enzyme | the mutants release 100% of uncleaved IL-8 after 24 h incubation | –
3 | GAS57 mutant S617A, His-tagged (protein) ADELSTMSEPTITNHAQQQAQHLTNTELSSAESKSQDTSQITLKTNREKEQSQDLVSEPTTTELADTDAASMANTGSDATQKSASLPPVNTDVHDWVKTKGAWDKGYKGQGKVVAVIDTGIDPAHQSMRISDVSTAKVKSKEDMLARQKAAGINYGSWINDKVVFAHNYVENSDNIKENQFEDFDEDWENFEFDAEAEPKAIKKHKIYRPQSTQAPKETVIKTEETDGSHDIDWTQTDDDTKYESHGMHVTGIVAGNSKEAAATGERFLGIAPEAQVMFMRVFANDIMGSAESLFIKAIEDAVALGADVINLSLGTANGAQLSGSKPLMEAIEKAKKAGVSVVVAAGNERVYGSDHDDPLATNPDYGLVGSPSTGRTPTSVAAINSKWVIQRLMTVKELENRADLNHGKAIYSESVDFKDIKDSLGYDKSHQFAYVKESTDAGYNAQDVKGKIALIERDPNKTYDEMIALAKKHGALGVLIFNNKPGQSNRSMRLTANGMGIPSAFISHEFGKAMSQLNGNGTGSLEFDSVVSKAPSQKGNEMNHFSNWGLTSDGYLKPDITAPGGDIYSTYNDNHYGSQTGTAMASPQIAGASLLVKQYLEKTQPNLPKEKIADIVKNLLMSNAQIHVNPETKTTTSPRQQGAGLLNIDGAVTSGLYVTGKDNYGSISLGNITDTMTFDVTVHNLSNKDKTLRYDTELLTDHVDPQKGRFTLTSHSLKTYQGGEVTVPANGKVTVRVTMDVSQFTKELTKQMPNGYYLEGFVRFRDSQDDQLNRVNIPFVGFKGQFENLAVAEESIYRLKSQGKTGFYFDESGPKDDIYVGKHFTGLVTLGSETNVSTKTISDNGLHTLGTFKNADGKFILEKNAQGNPVLAISPNGDNNQDFAAFKGVFLRKYQGLKASVYHASDKEHKNPLWVSPESFKGDKNFNSDIRFAKSTTLLGTAFSGKSLTGAELPDGHYHYVVSYYPDVVGAKRQEMTFDMILDRQKPVLSQATFDPETNRFKPEPLKDRGLAGVRKDSVFYLERKDNKPYTVTINDSYKYVSVEDNKTFVERQADGSFILPLDKAKLGDFYYMVEDFAGNVAIAKLGDHLPQTLGKTPIKLKLTDGNYQTKETLKDNLEMTQSDTGLVTNQAQLAVVHRNQPQSQLTKMNQDFFISPNEDGNKDFVAFKGLKNNVYNDLTVNVYAKDDHQKQTPIWSSQAGASVSAIESTAWYGITARGSKVMPGDYQYVVTYRDEHGKEHQKQYTISVNDKKPMITQGRFDTINGVDHFTPDKTKALDSSGIVREEVFYLAKKNGRKFDVTEGKDGITVSDNKVYIPKNPDGSYTISKRDGVTLSDYYYLVEDRAGNVSFATLRDLKAVGKDKAVVNFGLDLPVPEDKQIVNFTYLVRDADGKPIENLEYYNNSGNSLILPYGKYTVELLTYDTNAAKLESDKIVSFTLSADNNFQQVTFKITMLATSQITAHFDHLLPEGSRVSLKTAQDQLIPLEQSLYVPKAYGKTVQEGTYEVVVSLPKGYRIEGNTKVNTLPNEVHELSLRLVKVGDASDSTGDHKVMSKNNSQALTASATPT | – | – | the mutants release 100% of uncleaved IL-8 after 24 h incubation | unable to cleave IL-8, even at a 100-fold higher concentration than wild-type GAS57

From US20130202609
